The text below walks through data of PMC3928541.

Experiment [1] addresses mCherry-RAB11A (UniProt P62491). The experiment can be described thus: FRET or BRET.
Experiment [2] has the same target. Put plainly: FRET or BRET. The source holds these as a separate data set. (In general: Bioluminescence resonance energy transfer reports proximity on the nanometre scale.)

Read-outs that look alike come from different tables or passages of the source.

Sequence of UniProt P62491 (P62491 whole entry): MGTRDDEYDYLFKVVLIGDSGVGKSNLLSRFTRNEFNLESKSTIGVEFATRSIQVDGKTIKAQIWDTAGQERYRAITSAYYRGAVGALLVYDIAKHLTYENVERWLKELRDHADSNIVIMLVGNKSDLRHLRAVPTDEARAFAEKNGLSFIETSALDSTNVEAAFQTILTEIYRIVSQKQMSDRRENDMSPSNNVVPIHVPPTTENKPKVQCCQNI

In the case of “KIF13A-YFP fusion protein (natural protein)”, the mean YFP fluorescence lifetime (FLIM) with mCherry-RAB11A [1] came out at 2.45 ns; with mCherry-RAB11A [2], 2.19 ns.
